This is an account of results in PMC10465538.

The chains are these.
B1: CglPafA K106R, K172R, K302R (proteasome accessory factor A from Corynebacterium glutamicum) (enzyme)
chain: STVESALTRRIMGIETEYGLTFVDGDSKKLRPDEIARRMFRPIVEKYSSSNIFIPNGSRLYLDVGSHPEYATAECDNLTQLINFEKAGDVIADRMAVDAEESLAREDIAGQVYLFKNNVDSVGNSYGCHENYLVGRSMPLKALGKRLMPFLITRQLICGAGRIHHPNPLDRGESFPLGYCISQRSDHVWEGVSSATTRSRPIINTRDEPHADSHSYRRLHVIVGDANMAEPSIALKVGSTLLVLEMIEADFGLPSLELANDIASIREISRDATGSTLLSLKDGTTMTALQIQQVVFEHASRWLEQRPEPEFSGTSNTEMARVLDLWGRMLKAIESGDFSEVDTEIDWVIKKKLIDRFIQRGNLGLDDPKLAQVDLTYHDIRPGRGLFSVLQSRGMIKRWTTDEAILAAVDTAPDTTRAHLRGRILKAADTLGVPVTVDWMRHKVNRPEPQSVELGDPFSAVNSEVDQLIEYMTVHAESYRS
B2: PafA R137A (enzyme)
chain: STVESALTRRIMGIETEYGLTFVDGDSKKLRPDEIARRMFRPIVEKYSSSNIFIPNGSRLYLDVGSHPEYATAECDNLTQLINFEKAGDVIADRMAVDAEESLAREDIAGQVYLFKNNVDSVGNSYGCHENYLVGASMPLKALGKRLMPFLITRQLICGAGRIHHPNPLDRGESFPLGYCISQRSDHVWEGVSSATTRSRPIINTRDEPHADSHSYRRLHVIVGDANMAEPSIALKVGSTLLVLEMIEADFGLPSLELANDIASIREISRDATGSTLLSLKDGTTMTALQIQQVVFEHASRWLEQRPEPEFSGTSNTEMARVLDLWGRMLKAIESGDFSEVDTEIDWVIKKKLIDRFIQRGNLGLDDPKLAQVDLTYHDIRPGRGLFSVLQSRGMIKRWTTDEAILAAVDTAPDTTRAHLRGRILKAADTLGVPVTVDWMRHKVNRPEPQSVELGDPFSAVNSEVDQLIEYMTVHAESYRS
B3: PafA R442A (enzyme)
chain: STVESALTRRIMGIETEYGLTFVDGDSKKLRPDEIARRMFRPIVEKYSSSNIFIPNGSRLYLDVGSHPEYATAECDNLTQLINFEKAGDVIADRMAVDAEESLAREDIAGQVYLFKNNVDSVGNSYGCHENYLVGRSMPLKALGKRLMPFLITRQLICGAGRIHHPNPLDRGESFPLGYCISQRSDHVWEGVSSATTRSRPIINTRDEPHADSHSYRRLHVIVGDANMAEPSIALKVGSTLLVLEMIEADFGLPSLELANDIASIREISRDATGSTLLSLKDGTTMTALQIQQVVFEHASRWLEQRPEPEFSGTSNTEMARVLDLWGRMLKAIESGDFSEVDTEIDWVIKKKLIDRFIQRGNLGLDDPKLAQVDLTYHDIRPGRGLFSVLQSRGMIKRWTTDEAILAAVDTAPDTTRAHLRGRILKAADTLGVPVTVDWMAHKVNRPEPQSVELGDPFSAVNSEVDQLIEYMTVHAESYRS
B4: PafA K444A (enzyme)
chain: STVESALTRRIMGIETEYGLTFVDGDSKKLRPDEIARRMFRPIVEKYSSSNIFIPNGSRLYLDVGSHPEYATAECDNLTQLINFEKAGDVIADRMAVDAEESLAREDIAGQVYLFKNNVDSVGNSYGCHENYLVGRSMPLKALGKRLMPFLITRQLICGAGRIHHPNPLDRGESFPLGYCISQRSDHVWEGVSSATTRSRPIINTRDEPHADSHSYRRLHVIVGDANMAEPSIALKVGSTLLVLEMIEADFGLPSLELANDIASIREISRDATGSTLLSLKDGTTMTALQIQQVVFEHASRWLEQRPEPEFSGTSNTEMARVLDLWGRMLKAIESGDFSEVDTEIDWVIKKKLIDRFIQRGNLGLDDPKLAQVDLTYHDIRPGRGLFSVLQSRGMIKRWTTDEAILAAVDTAPDTTRAHLRGRILKAADTLGVPVTVDWMRHAVNRPEPQSVELGDPFSAVNSEVDQLIEYMTVHAESYRS
B5: PafA R218A (enzyme)
chain: STVESALTRRIMGIETEYGLTFVDGDSKKLRPDEIARRMFRPIVEKYSSSNIFIPNGSRLYLDVGSHPEYATAECDNLTQLINFEKAGDVIADRMAVDAEESLAREDIAGQVYLFKNNVDSVGNSYGCHENYLVGRSMPLKALGKRLMPFLITRQLICGAGRIHHPNPLDRGESFPLGYCISQRSDHVWEGVSSATTRSRPIINTRDEPHADSHSYARLHVIVGDANMAEPSIALKVGSTLLVLEMIEADFGLPSLELANDIASIREISRDATGSTLLSLKDGTTMTALQIQQVVFEHASRWLEQRPEPEFSGTSNTEMARVLDLWGRMLKAIESGDFSEVDTEIDWVIKKKLIDRFIQRGNLGLDDPKLAQVDLTYHDIRPGRGLFSVLQSRGMIKRWTTDEAILAAVDTAPDTTRAHLRGRILKAADTLGVPVTVDWMRHKVNRPEPQSVELGDPFSAVNSEVDQLIEYMTVHAESYRS
B6: PafA site 3 alanine double mutant (R442A, K444A) (enzyme)
chain: STVESALTRRIMGIETEYGLTFVDGDSKKLRPDEIARRMFRPIVEKYSSSNIFIPNGSRLYLDVGSHPEYATAECDNLTQLINFEKAGDVIADRMAVDAEESLAREDIAGQVYLFKNNVDSVGNSYGCHENYLVGRSMPLKALGKRLMPFLITRQLICGAGRIHHPNPLDRGESFPLGYCISQRSDHVWEGVSSATTRSRPIINTRDEPHADSHSYRRLHVIVGDANMAEPSIALKVGSTLLVLEMIEADFGLPSLELANDIASIREISRDATGSTLLSLKDGTTMTALQIQQVVFEHASRWLEQRPEPEFSGTSNTEMARVLDLWGRMLKAIESGDFSEVDTEIDWVIKKKLIDRFIQRGNLGLDDPKLAQVDLTYHDIRPGRGLFSVLQSRGMIKRWTTDEAILAAVDTAPDTTRAHLRGRILKAADTLGVPVTVDWMAHAVNRPEPQSVELGDPFSAVNSEVDQLIEYMTVHAESYRS
B7: PafA R137A, R218A (enzyme)
chain: STVESALTRRIMGIETEYGLTFVDGDSKKLRPDEIARRMFRPIVEKYSSSNIFIPNGSRLYLDVGSHPEYATAECDNLTQLINFEKAGDVIADRMAVDAEESLAREDIAGQVYLFKNNVDSVGNSYGCHENYLVGASMPLKALGKRLMPFLITRQLICGAGRIHHPNPLDRGESFPLGYCISQRSDHVWEGVSSATTRSRPIINTRDEPHADSHSYARLHVIVGDANMAEPSIALKVGSTLLVLEMIEADFGLPSLELANDIASIREISRDATGSTLLSLKDGTTMTALQIQQVVFEHASRWLEQRPEPEFSGTSNTEMARVLDLWGRMLKAIESGDFSEVDTEIDWVIKKKLIDRFIQRGNLGLDDPKLAQVDLTYHDIRPGRGLFSVLQSRGMIKRWTTDEAILAAVDTAPDTTRAHLRGRILKAADTLGVPVTVDWMRHKVNRPEPQSVELGDPFSAVNSEVDQLIEYMTVHAESYRS
B8: PafA site 2 triple alanine variant (R137A/R207A/R218A) (enzyme)
chain: STVESALTRRIMGIETEYGLTFVDGDSKKLRPDEIARRMFRPIVEKYSSSNIFIPNGSRLYLDVGSHPEYATAECDNLTQLINFEKAGDVIADRMAVDAEESLAREDIAGQVYLFKNNVDSVGNSYGCHENYLVGASMPLKALGKRLMPFLITRQLICGAGRIHHPNPLDRGESFPLGYCISQRSDHVWEGVSSATTRSRPIINTADEPHADSHSYARLHVIVGDANMAEPSIALKVGSTLLVLEMIEADFGLPSLELANDIASIREISRDATGSTLLSLKDGTTMTALQIQQVVFEHASRWLEQRPEPEFSGTSNTEMARVLDLWGRMLKAIESGDFSEVDTEIDWVIKKKLIDRFIQRGNLGLDDPKLAQVDLTYHDIRPGRGLFSVLQSRGMIKRWTTDEAILAAVDTAPDTTRAHLRGRILKAADTLGVPVTVDWMRHKVNRPEPQSVELGDPFSAVNSEVDQLIEYMTVHAESYRS
B9: PafA R207A (enzyme)
chain: STVESALTRRIMGIETEYGLTFVDGDSKKLRPDEIARRMFRPIVEKYSSSNIFIPNGSRLYLDVGSHPEYATAECDNLTQLINFEKAGDVIADRMAVDAEESLAREDIAGQVYLFKNNVDSVGNSYGCHENYLVGRSMPLKALGKRLMPFLITRQLICGAGRIHHPNPLDRGESFPLGYCISQRSDHVWEGVSSATTRSRPIINTADEPHADSHSYRRLHVIVGDANMAEPSIALKVGSTLLVLEMIEADFGLPSLELANDIASIREISRDATGSTLLSLKDGTTMTALQIQQVVFEHASRWLEQRPEPEFSGTSNTEMARVLDLWGRMLKAIESGDFSEVDTEIDWVIKKKLIDRFIQRGNLGLDDPKLAQVDLTYHDIRPGRGLFSVLQSRGMIKRWTTDEAILAAVDTAPDTTRAHLRGRILKAADTLGVPVTVDWMRHKVNRPEPQSVELGDPFSAVNSEVDQLIEYMTVHAESYRS

One experiment addresses MtbFabD3KR-Strep (malonyl CoA-acyl carrier protein transacylase variant that lacks secondary pupylation sites) (Mycobacterium tuberculosis) (UniProt P9WNG5).
Regarding B1, the App. initial pupylation rate (in vitro pupylation of FabD, SDS-PAGE densitometry) was 10.4 h⁻¹. Still for that read-out and setting: the result for B2 reads 3.1 h⁻¹; that for B3, 2.87 h⁻¹. On the same count and under the same terms, the result for B4 reads 2.65 h⁻¹; that for B5, 5.05 h⁻¹; that for B6, 2.64 h⁻¹. On the same count and under the same terms, the result for B7 reads 0.17 h⁻¹.

For another experiment, the target named is MtbPanB-Strep (ketopantoate hydroxymethyltransferase) (Mycobacterium tuberculosis) (UniProt P9WIL7).
Consider B8, for which the in vitro pupylation of PanB, reduction against PafA (gel densitometry) worked out at 70 % reduction.

For the next experiment the target is unchanged. The source holds these as a separate data set.
For the molecule B9, the in vitro pupylation of PanB, reduction against PafA (gel densitometry) was 50 % reduction.
